Measured values reported in publication PMC2172693.

Target: tetramethylrhodamine isothiocyanate-labeled actin (UniProt P68139)
Experiment: optical trap

Substance	step duration (τon) [ms]
heterodimeric heavy meromyosin with one wild-type head and one E470A head (from UniProt P10587;P02607) (complex)	106
single-headed subfragment-1 with neonatal epitope tag at its COOH terminus (from UniProt P10587;P02607) (complex)	189
wild-type smooth muscle heavy meromyosin (from UniProt P10587;P02607) (complex)	104
